Test results published in the Human Domainome abundance scans (Beltran et al. 2025).
± gives the uncertainty stated by the source.

B1: CD2-associated protein, residues 271 to 331; numbered along this chain, Q9Y5K6 (parent)
chain: KEYCRTLFAYEGTNEDELTFKEGEIIHLISKETGEAGWWRGELNGKEGVFPDNFAVQINEL

Variants of: B1
Assay: abundance fitness (aPCA) (normalised: wild type 0, dead -1); higher = more abundant; growth selection in yeast, the domain comes from the species named
Settings: Homo sapiens

Abundance fitness of substitutions, site by site:
Y10: Q -0.439 ± 0.13; S -0.598 ± 0.067; L -0.744 ± 0.14; A -0.686 ± 0.14; K -0.167 ± 0.21; I -0.846 ± 0.48; V -0.567 ± 0.16; C -0.659 ± 0.14; W -0.209 ± 0.066; P -0.79 ± 0.2; H -0.373 ± 0.17; G -0.544 ± 0.074; F -0.182 ± 0.1; T -0.864 ± 0.22; N -0.831 ± 0.42; E -0.592 ± 0.14
E2: T -0.121 ± 0.083; R -0.245 ± 0.063; S -0.128 ± 0.067; G -0.078 ± 0.057; D 0.039 ± 0.12; H 0.049 ± 0.16; A -0.022 ± 0.068; P -0.306 ± 0.13; Q -0.05 ± 0.22; M 0.073 ± 0.15; L -0.136 ± 0.074; V -0.222 ± 0.064; K -0.084 ± 0.13; F -0.351 ± 0.18; W -0.525 ± 0.14; N 0.002 ± 0.12
F8: Q 0.074 ± 0.065; K 0.128 ± 0.06; R 0.12 ± 0.044; P -0.432 ± 0.074; L -0.064 ± 0.039; Y -0.148 ± 0.093; V 0.004 ± 0.047; A 0.014 ± 0.056; D -0.311 ± 0.13; G 0.028 ± 0.059; W -0.139 ± 0.051; H -0.109 ± 0.081
R5: D -0.764 ± 0.16; Q -0.37 ± 0.33; W -0.689 ± 0.21; P -0.978 ± 0.21; G -0.868 ± 0.14; E -0.154 ± 0.18; A -0.426 ± 0.15; K 0.182 ± 0.15; V -0.439 ± 0.066; S -0.49 ± 0.068; N -0.601 ± 0.085; I -0.527 ± 0.062; H -0.461 ± 0.081; T -0.34 ± 0.073; F -0.487 ± 0.083; L -0.383 ± 0.081
N14: A -0.023 ± 0.078
C4: D -1.04 ± 0.46; G -0.707 ± 0.094; K -0.64 ± 0.15; E -1.09 ± 0.24; V -0.354 ± 0.066; T -0.714 ± 0.12; M -0.23 ± 0.1; R -0.62 ± 0.083; S -0.791 ± 0.095; F -0.007 ± 0.11; L -0.046 ± 0.064; I -0.113 ± 0.12; Q -0.9 ± 0.25; A -0.591 ± 0.1; W -0.301 ± 0.068; H -1.07 ± 0.3
K1: F -0.337 ± 0.21; T -0.394 ± 0.079; R -0.277 ± 0.074; L -0.296 ± 0.061; N -0.384 ± 0.098; A -0.529 ± 0.097; I -0.245 ± 0.12; S -0.229 ± 0.091; H -0.489 ± 0.32; G -0.223 ± 0.056; D -0.364 ± 0.088; M -0.154 ± 0.081; Q -0.343 ± 0.1; W -0.543 ± 0.11; V -0.332 ± 0.088; Y -0.656 ± 0.13; E -0.083 ± 0.083; C -0.629 ± 0.14
E11: D -0.122 ± 0.13; A -0.234 ± 0.088; Q -0.4 ± 0.2; W -0.261 ± 0.078; R -0.263 ± 0.047; Y -0.19 ± 0.19; S -0.237 ± 0.074; T -0.216 ± 0.093; F -0.151 ± 0.17; K -0.095 ± 0.093; P -0.745 ± 0.14; G -0.384 ± 0.069; M -0.254 ± 0.11; I -0.164 ± 0.13; C -0.256 ± 0.096; V -0.157 ± 0.09; L -0.377 ± 0.06; H -0.151 ± 0.46
L7: P -1.01 ± 0.15; C -0.336 ± 0.098; H -0.674 ± 0.14; A -0.275 ± 0.059; F -0.741 ± 0.15; I -0.021 ± 0.1; M -0.113 ± 0.077; W -0.539 ± 0.098; R -0.276 ± 0.061; K -0.174 ± 0.056; G -0.57 ± 0.11; T -0.017 ± 0.057; D -0.426 ± 0.14; S -0.107 ± 0.056; V -0.088 ± 0.07; Y -0.762 ± 0.15; E -0.457 ± 0.1
T13: P -0.594 ± 0.089; A 0.066 ± 0.063; K 0.108 ± 0.066; L -0.082 ± 0.05; C 0.038 ± 0.11; G -0.018 ± 0.064; S -0.051 ± 0.053; R 0.042 ± 0.053; Y -0.257 ± 0.1; E -0.042 ± 0.062; W -0.475 ± 0.093; H -0.197 ± 0.12; D -0.185 ± 0.085; I -0.183 ± 0.15; N -0.078 ± 0.093; Q 0.122 ± 0.083; F -0.416 ± 0.1; V -0.083 ± 0.048
G12: E -0.434 ± 0.11; A 0.036 ± 0.055; K -0.224 ± 0.095; C -0.329 ± 0.091; Q -0.513 ± 0.1; L -0.865 ± 0.089; N -0.646 ± 0.14; W -0.471 ± 0.11; I -0.887 ± 0.23; Y -0.759 ± 0.23; F -0.687 ± 0.11; T -0.425 ± 0.068; P -0.381 ± 0.087; H -0.837 ± 0.16; V -1.1 ± 0.19; D -0.794 ± 0.13; M -0.786 ± 0.13; S -0.113 ± 0.055
A9: T -0.268 ± 0.059
